In patent US20080193921, “Methods to identify agents that bind the flap-tip helix of RNA polymerase” (Wisconsin Alumni Research Foundation, published 2008):

Experiments:
[1] = target: RNA polymerase sigma70 holoenzyme, beta delta(900-909) beta deletion 900-909 (Escherichia coli) (UniProt P0A7Z4+P0A8V2+P0A8T7+P0A800+P00579); conditions: +sigma70; SD 0.05
[2] = target: RNA polymerase beta F906A beta F906A (Escherichia coli) (UniProt P0A7Z4+P0A8V2+P0A8T7+P0A800); conditions: -sigma70; SD 0.14
[3] = target: RNA polymerase beta L901R beta L901R (Escherichia coli) (UniProt P0A7Z4+P0A8V2+P0A8T7+P0A800); conditions: -sigma70; SD 0.05
[4] = target: RNA polymerase beta L901Q beta L901Q (Escherichia coli) (UniProt P0A7Z4+P0A8V2+P0A8T7+P0A800); conditions: -sigma70; SD 0.05
[5] = target: RNA polymerase sigma70 holoenzyme, beta L901Q beta L901Q (Escherichia coli) (UniProt P0A7Z4+P0A8V2+P0A8T7+P0A800+P00579); conditions: +sigma70; SD 0.07
[6] = target: RNA polymerase sigma70 holoenzyme, beta L902P beta L902P (Escherichia coli) (UniProt P0A7Z4+P0A8V2+P0A8T7+P0A800+P00579); conditions: +sigma70; SD 0.09
[7] = target: RNA polymerase beta L902P beta L902P (Escherichia coli) (UniProt P0A7Z4+P0A8V2+P0A8T7+P0A800); conditions: -sigma70; SD 0.05
[8] = target: RNA polymerase beta I905N beta I905N (Escherichia coli) (UniProt P0A7Z4+P0A8V2+P0A8T7+P0A800); conditions: -sigma70; SD 0.04
[9] = target: RNA polymerase sigma70 holoenzyme, wild-type (Escherichia coli) (UniProt P0A7Z4+P0A8V2+P0A8T7+P0A800+P00579); conditions: +sigma70; SD 0.1
[10] = target: RNA polymerase sigma70 holoenzyme, beta L901R beta L901R (Escherichia coli) (UniProt P0A7Z4+P0A8V2+P0A8T7+P0A800+P00579); conditions: +sigma70; SD 0.07
[11] = target: RNA polymerase beta delta(900-909) beta deletion 900-909 (Escherichia coli) (UniProt P0A7Z4+P0A8V2+P0A8T7+P0A800); conditions: -sigma70; SD 0.02
[12] = target: RNA polymerase sigma70 holoenzyme, beta F906A beta F906A (Escherichia coli) (UniProt P0A7Z4+P0A8V2+P0A8T7+P0A800+P00579); conditions: +sigma70; SD 0.15
[13] = target: RNA polymerase core, wild-type (alpha2 beta beta' omega) (Escherichia coli) (UniProt P0A7Z4+P0A8V2+P0A8T7+P0A800); conditions: [3H]UMP incorporation, -sigma70; SD 0.05
[14] = target: RNA polymerase sigma70 holoenzyme, beta I905N beta I905N (Escherichia coli) (UniProt P0A7Z4+P0A8V2+P0A8T7+P0A800+P00579); conditions: +sigma70; SD 0.02
[15] = target: σ^70 lacking region 1 and region 4 (UniProt P00579); test: trypsin protection of the β flap-tip by σ70 lacking regions 1 and 4; wild-type RNAP without σ: 9.2 ± 0.1
σ^70 lacking region 4 = σ^70 lacking region 4 (UniProt P00579); test: trypsin protection of the β flap-tip by σ70 lacking region 4; wild-type RNAP without σ: 9.2 ± 0.1
σ^70 lacking region 1 = σ^70 lacking region 1 (UniProt P00579); test: trypsin protection of the β flap-tip by σ70 lacking region 1; wild-type RNAP without σ: 9.2 ± 0.1
[16] = target: T1, RNA polymerase core, wild-type (alpha2 beta beta' omega) (Escherichia coli, UniProt P0A7Z4;P0A8V2;P0A8T7;P0A800 P0A7Z4:1-329,P0A8V2:1-1342,P0A8T7:1-1407,P0A800:2-91); test: 5-iodoU UV crosslinking in paused TEC; conditions: tags: N-terminal His6 on beta; beta' C-terminal intein-CBD removed by DTT; chain copies: 2,1,1,1; label: 32P; hairpin
[17] = target: RNA polymerase beta K909C (Escherichia coli, UniProt P0A7Z4;P0A8V2;P0A8T7;P0A800 P0A7Z4:1-329,P0A8V2:1-1342,P0A8T7:1-1407,P0A800:2-91, beta K909C); test: UV crosslinking in paused TEC; crosslink maps between 903 and 909; conditions: tags: N-terminal His6 on beta; chain copies: 2,1,1,1; label: 32P; hairpin
Protocol: (§1) First, paused TECs containing either wild-type or βK909C mutant RNAPs and a wild-type pause hairpin loop derivatized with 5-iodoU and [α-³²P]CMP were prepared (FIG. 1A). The 5-iodoU crosslink was mapped by cleaving the crosslinked β subunit either to completion with trypsin or partially with 2-nitro-5-thiobenzoic-acid (NTCB), and by separating the cleavage products on SDS polyacrylamide gels (8-16% gradient; FIG. 6A). Trypsin cleavage was performed prior to disruption of the TEC, which results in cleavage within β only at R903 and K909 (Boruhkov et al., 1991). […] NTCB cleaves at Cys residues, which are present at seven positions in wild-type β and eight in βK909C.

[18] = target: RNA polymerase beta F906A (Escherichia coli, UniProt P0A7Z4;P0A8V2;P0A8T7;P0A800 P0A7Z4:1-329,P0A8V2:1-1342,P0A8T7:1-1407,P0A800:2-91, beta F906A); test: 4-thioU crosslink retained while 5-iodoU crosslink lost; hairpin-flap interaction not altered; conditions: tags: N-terminal His6 on beta, beta' intein-CBD removed by DTT, chain copies: 2,1,1,1, label: 32P
[19] = target: T1, RNA polymerase core, wild-type (alpha2 …); test: UV crosslinking (5-iodoU) in paused TEC; mapped to beta 904-908; conditions: tags: N-terminal His6 on beta; beta' C-terminal intein-CBD removed by DTT; chain copies: 2,1,1,1; label: 32P; hairpin
Protocol: as §1

Molecule: poly(dA dT)
- binding signal (relative to wild-type core) [1]: 0.9
- binding signal (relative to wild-type core) [2]: 1
- binding signal (relative to wild-type core) [3]: 1.2
- binding signal (relative to wild-type core) [4]: 1.2
- binding signal (relative to wild-type core) [5]: 1.4
- binding signal (relative to wild-type core) [6]: 1.5
- binding signal (relative to wild-type core) [7]: 1.2
- binding signal (relative to wild-type core) [8]: 1
- binding signal (relative to wild-type core) [9]: 2
- binding signal (relative to wild-type core) [10]: 1.5
- binding signal (relative to wild-type core) [11]: 0.95
- binding signal (relative to wild-type core) [12]: 2.1
- binding signal (relative to wild-type core) [13]: 1
- binding signal (relative to wild-type core) [14]: 1.3

Molecule: wild-type Escherichia coli RNA polymerase (core enzyme, α, β, β′ subunits)
- β cleavage rate + σ^70 [15]: 0.011 s⁻¹
- β cleavage rate + σ^70 (σ^70 lacking region 4): 0.011 s⁻¹
- β cleavage rate + σ^70 (σ^70 lacking region 1): 0.0062 s⁻¹

Molecule: CCUGCUUCGGCAGGCGAUGUGUGCUG (ssRNA, 5-iodoU in hairpin loop) [his pause RNA, tetraloop hairpin]
- binding result [16]: binds

Molecule: CCUGACUAGUCUUUCAGG (ssRNA, 5-iodoU or 4-thioU in hairpin loop) [his pause RNA hairpin, wild-type]
- binding result [17]: binds
- binding result [18]: binds
- binding result [19]: binds
